Data reported in article doi:10.1101/679431 (bioRxiv, 2019).

B1: endogenous TRAP1 (natural protein)
chain: STQTAEDKEEPLHSIISSTESVQGSTSKHEFQAETKKLLDIVARSLYSEKEVFIRELISNASDALEKLRHKLVSDGQALPEMEIHLQTNAEKGTITIQDTGIGMTQEELVSNLGTIARSGSKAFLDALQNQAEASSKIIGQFGVGFYSAFMVADRVEVYSRSAAPGSLGYQWLSDGSGVFEIAEASGVRTGTKIIIHLKSDCKEFSSEARVRDVVTKYSNFVSFPLYLNGRRMNTLQAIWMMDPKDVREWQHEEFYRYVAQAHDKPRYTLHYKTDAPLNIRSIFYVPDMKPSMFDVSRELGSSVALYSRKVLIQTKATDILPKWLRFIRGVVDSEDIPLNLSRELLQESALIRKLRDVLQQRLIKFFIDQSKKDAEKYAKFFEDYGLFMREGIVTATEQEVKEDIAKLLRYESSALPSGQLTSLSEYASRMRAGTRNIYYLCAPNRHLAEHSPYYEAMKKKDTEVLFCFEQFDELTLLHLREFDKKKLISVETDIVVDHYKEEKFEDRSPAAECLSEKETEELMAWMRNVLGSRVTNVKVTLRLDTHPAMVTVLEMGAARHFLRMQQLAKTQEERAQLLQPTLEINPRHALIKKLNQLRASEPGLAQLLVDQIYENAMIAAGLVDDPRAMVGRLNELLVKALERH
B2: TRAP1-GST fusion protein (natural protein)
chain: B1 chain

How the values were obtained:
native gel or EMSA = target: the molecule itself; experiment: native gel or EMSA
[1] = target: the molecule itself; experiment: affinity purification with mass spectrometry + native gel or EMSA

Protein	stoichiometry N (native gel or EMSA)	stoichiometry N [1]
B1	4	
B2		4
